Measurements reported in US20250295799A1 (Zymeworks, published 2025).
Numbering of substitutions follows the chain as printed.

B1: M3-H18L6 (WT) mAb, v38592 (antibody, human IgG1, kappa)
heavy: not shown
light: EIVLTQSPATLSLSPGERATISCRSSQSLRHSNGNTYLQWYQQKPGQAPRLLIYKVSNRFSGVPARFSGSGSGTDFTLTISSLEPEDFAVYFCYQSKHVPYTFGGGTKVEIKRTVAAPSVFIFPPSDEQLKSGTASVVCLLNNFYPREAKVQWKVDNALQSGNSQESVTEQDSKDSTYSLSSTLTLSKADYEKHKVYACEVTHQGLSSPVTKSFNRGEC
notes: Full-size IgG1/kappa; also called wild-type M3-H18L6; M3-H18L6 with HC C-terminal lysine
B2: H18L6_LC_G34D mAb, v40203 (antibody, human IgG1, kappa, V domains shown)
VH: QVQLVQSGAEVKKPGSSVKVSCKASGYTFTDYEMHWVKQAPGHGLEWIGAIDPETGDTAYNQKFKGKATLTADTSTSTAYMELSSLRSEDTAVYYCTRYFSFAYWGQGTLVTVSS
VL: EIVLTQSPATLSLSPGERATISCRSSQSLRHSNDNTYLQWYQQKPGQAPRLLIYKVSNRFSGVPARFSGSGSGTDFTLTISSLEPEDFAVYFCYQSKHVPYTFGGGTKVEIKR
B3: H18L6_LC_G34R mAb, v40206 (antibody, human IgG1, kappa, V domains shown)
VH: B2 VH
VL: B2 VL with D34R
notes: Full-size IgG1/kappa
B4: H18L6_LC_G34A mAb, v40212 (antibody, human IgG1, kappa, V domains shown)
VH: B2 VH
VL: B2 VL with D34A
notes: M3-H18L6 chains with the stated light chain point mutation, IgG1/kappa
B5: H18L6_LC_G34Q mAb, v40208 (antibody, human IgG1, kappa, V domains shown)
VH: B2 VH
VL: B2 VL with D34Q
notes: Full-size IgG1/kappa
B6: H18L6_LC_G34K mAb, v40207 (antibody, human IgG1, kappa, V domains shown)
VH: B2 VH
VL: B2 VL with D34K
notes: Full-size IgG1/kappa
B7: H18L6_LC_G34E mAb, v40204 (antibody, human IgG1, kappa, V domains shown)
VH: B2 VH
VL: B2 VL with D34E
notes: as for B4

Target: T1, human glypican-3 (GPC3) (human, UniProt P51654 25-554)
T1 construct: Endogenous on JHH-7, JHH-5, HepG2 and NCI-H446 tumour cells, or transiently expressed on CHO-S cells from a pTT5 plasmid; also called hGPC3; huGPC3
Experiment: flow cytometry on JHH-5 cells (GPC3-mid);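 also: antibody binding to cells at 4 °C for 24 h, detected with anti-human AF647 as geometric mean fluorescence of live cells versus antibody concentration, fitted by specific binding with Hill slope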
Description: (§1) Briefly, cells were seeded at 50,000 cells/well in V-bottom 96-well plates and treated with antibody for 24 hours at 4° C. to prevent internalization. […] Following incubation and washing, fluorescence was detected by flow cytometry on a BD LSRFortessa™ Cell Analyzer (BD Biosciences, Franklin Lake, NJ) with 1,000 minimum events collected per well. AF647/APC-A GeoMean (fluorescence signal geometric mean, proportional to anti-Human AF647 binding) in live cell population was plotted against antibody concentration using GraphPad Prism Version 9 (GraphPad Software, San Diego, CA). The Bmax, Curve Hill Slope (h) and Kd values were derived from the “Specific binding with Hill slope” nonlinear regression curve fit in GraphPad Prism Version 9.
For JHH-5 Internalization (MFI) in this document: test concentration or dose not given here.
For JHH-5 Internalization (MFI), Day 0 in mouse plasma in this document: test concentration or dose not given here.
For JHH-5 Internalization (MFI), Day 14 in mouse plasma in this document: test concentration or dose not given here.
For JHH-7 Internalization (MFI) in this document: test concentration or dose not given here.

Going from B1 to B2, the “Bmax (MFI)” value falls from 4670 MFI to 4280 MFI.

Compared with B3, B4 is lower in “Bmax (MFI)” value: 4910 MFI for the first, 3850 MFI for the second.

Going from B5 to B6, the “Bmax (MFI)” value rises from 4360 MFI to 4740 MFI.

For B7, the “Bmax (MFI)” value was 4140 MFI.

Going from B1 to B2, the Kd rises from 0.12 nM to 0.24 nM (2-fold).

Compared with B3, B4 is 1.6-fold higher in Kd: 0.19 nM for the first, 0.31 nM for the second.

B5 and B6 are within 1.5-fold of each other in Kd: 0.16 nM for the first, 0.2 nM for the second.

In the case of B7, the Kd is reported as 0.17 nM.

Target: T1, human glypican-3 (GPC3)
Experiment: flow cytometry on JHH-7 cells; antibody in mouse plasma, day 0
Description: (§2) For binding cells were seeded at 50,000 cells/well in V-bottom 96-well plates and treated with antibody for 24 hours at 4° C. to prevent internalization. […] Following incubation and washing, fluorescence was detected by flow cytometry on a BD LSRFortessa™ Cell Analyzer (BD Biosciences, Franklin Lake, NJ) with 1,000 minimum events collected per well. AF647/APC-A GeoMean (fluorescence signal geometric mean, proportional to anti-Human AF647 binding) in live cell population was plotted against antibody concentration using GraphPad Prism Version 9 (GraphPad Software, San Diego, CA). The Bmax, Curve Hill Slope (h) and Kd values were derived from the “Specific binding with Hill slope” nonlinear regression curve fit in GraphPad Prism Version 9.

Going from B1 to B2, the “Bmax (MFI)” value falls from 9770 MFI to 9140 MFI.

Going from B3 to B4, the “Bmax (MFI)” value falls from 9390 MFI to 8360 MFI.

Compared with B5, B6 is higher in “Bmax (MFI)” value: 8910 MFI for the first, 9620 MFI for the second.

For B7, the “Bmax (MFI)” value was 8500 MFI.

Going from B1 to B2, the Kd falls from 0.39 nM to 0.26 nM (1.5-fold). The second binds more tightly here.

Compared with B3, B4 is 2.4-fold higher in Kd: 0.15 nM for the first, 0.36 nM for the second.

Going from B5 to B6, the Kd falls from 0.32 nM to 0.16 nM (2-fold).

In the case of B7, the Kd is reported as 0.26 nM.

Target: T1, human glypican-3 (GPC3)
Experiment: flow cytometry on JHH-5 cells; antibody in mouse plasma, day 0
Description: as §2

Compared with B1, B2 is lower in “Bmax (MFI)” value: 5130 MFI for the first, 4660 MFI for the second.

Compared with B3, B4 is lower in “Bmax (MFI)” value: 5450 MFI for the first, 4930 MFI for the second.

Compared with B5, B6 is higher in “Bmax (MFI)” value: 4730 MFI for the first, 5490 MFI for the second.

With B7 the “Bmax (MFI)” value was 4760 MFI.

B1 and B2 are within 1.5-fold of each other in Kd: 0.14 nM for the first, 0.11 nM for the second.

Going from B3 to B4, the Kd rises from 0.07 nM to 0.15 nM (2.1-fold).

First: B5
Second: B6
The Kd of the first is 1.6-fold higher: 0.11 nM for the first, 0.07 nM for the second.

B7 gave a Kd of 0.11 nM.

Target: T1, human glypican-3 (GPC3)
Experiment: flow cytometry on JHH-7 cells; antibody after 14 days in mouse plasma at 37 C
Description: as §2

First: B2
Second: B3
The “Bmax (MFI)” value of the first is lower: 8060 MFI for the first, 9710 MFI for the second.

Compared with B4, B5 is lower in “Bmax (MFI)” value: 11300 MFI for the first, 11000 MFI for the second.

Compared with B6, B7 is lower in “Bmax (MFI)” value: 10900 MFI for the first, 8430 MFI for the second.

Going from B2 to B3, the Kd falls from 0.62 nM to 0.39 nM (1.6-fold).

B4 and B5 are within 1.5-fold of each other in Kd: 0.28 nM for the first, 0.23 nM for the second.

Compared with B6, B7 is 2.2-fold higher in Kd: 0.31 nM for the first, 0.67 nM for the second. The first binds more tightly here.

Target: T1, human glypican-3 (GPC3)
Experiment: flow cytometry on JHH-5 cells; antibody after 14 days in mouse plasma at 37 C
Description: as §2

First: B2
Second: B3
The “Bmax (MFI)” value of the first is lower: 4520 MFI for the first, 5320 MFI for the second.

Going from B4 to B5, the “Bmax (MFI)” value falls from 6050 MFI to 5640 MFI.

First: B6
Second: B7
The “Bmax (MFI)” value of the first is higher: 6460 MFI for the first, 4460 MFI for the second.

First: B2
Second: B3
The Kd of the first is 1.6-fold higher: 0.34 nM for the first, 0.21 nM for the second.

Compared with B4, B5 is 1.5-fold lower in Kd: 0.23 nM for the first, 0.15 nM for the second. The second binds more tightly here.

B6 and B7 are the same in Kd: 0.26 nM for the first, 0.26 nM for the second.

Target: T1, human glypican-3 (GPC3)
Experiment: flow cytometry on JHH-7 cells (GPC3-high);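 also: antibody binding at 4 °C for 24 h, detected with anti-human AF647 secondary, geometric mean fluorescence of live cells versus antibody concentration, fitted as specific binding with Hill slope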
Description: as §1

First: B1
Second: B2
The “Bmax (MFI)” value of the first is higher: 14100 MFI for the first, 12200 MFI for the second.

First: B3
Second: B4
The “Bmax (MFI)” value of the first is lower: 12500 MFI for the first, 13300 MFI for the second.

Going from B5 to B6, the “Bmax (MFI)” value rises from 11600 MFI to 12200 MFI.

With B7 the “Bmax (MFI)” value was 12500 MFI.

B1 and B2 are within 1.5-fold of each other in Kd: 0.42 nM for the first, 0.4 nM for the second.

Going from B3 to B4, the Kd rises from 0.34 nM to 0.56 nM (1.6-fold).

B5 and B6 are within 1.5-fold of each other in Kd: 0.44 nM for the first, 0.39 nM for the second.

B7 gave a Kd of 0.42 nM.

Target: T1, human glypican-3 (GPC3)
Experiment: cell-based or functional assay

Compared with B1, B2 is lower in “JHH-5 Internalization (MFI)” value: 10500 MFI for the first, 6770 MFI for the second.

Going from B3 to B4, the “JHH-5 Internalization (MFI)” value falls from 10700 MFI to 9070 MFI.

Going from B5 to B6, the “JHH-5 Internalization (MFI)” value rises from 9510 MFI to 10000 MFI.

For B7, the “JHH-5 Internalization (MFI)” value was 5770 MFI.

Compared with B1, B2 is lower in “JHH-7 Internalization (MFI)” value: 7260 MFI for the first, 5010 MFI for the second.

Compared with B3, B4 is lower in “JHH-7 Internalization (MFI)” value: 9240 MFI for the first, 8070 MFI for the second.

First: B5
Second: B6
The “JHH-7 Internalization (MFI)” value of the first is higher: 8920 MFI for the first, 8760 MFI for the second.

For B7, the “JHH-7 Internalization (MFI)” value was 4410 MFI.

Target: T1, human glypican-3 (GPC3)
Experiment: flow cytometry on CHO-S cells transfected with human GPC3;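 also: antibody binding to transiently transfected CHO-S cells after 24 hours at 4 °C, read as geometric mean fluorescence of anti-human AF647 in live cells, fitted against antibody concentration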
Description: (§3) Briefly, CHO—S cells were transiently transfected for −24 hours with a pTT5-based expression plasmid encoding human GPC3 or cynomolgus monkey GPC3, 0.5 μg DNA per 1 million cells, using the Neon™ Transfection System (Thermo Fisher Scientific Corp., Waltham, MA), to transiently express human or cynomolgus monkey GPC3. Cells transfected with GFP were used as negative transfection controls. Following transfection, cells were seeded at 50,000 cells/well in V-bottom 96-well plates and treated with antibody for 24 hours at 4° C. to prevent internalization. […] Following incubation and washing, fluorescence was detected by flow cytometry on a BD LSRFortessa™ Cell Analyzer (BD Biosciences, Franklin Lake, NJ) with 1,000 minimum events collected per well. AF647/APC-A GeoMean (fluorescence signal geometric mean, proportional to anti-Human AF647 binding) in live cell population was plotted against antibody concentration using GraphPad Prism Version 9 (GraphPad Software, San Diego, CA). The Bmax and Kd values were derived from the “Specific binding with Hill slope” nonlinear regression curve fit in GraphPad Prism Version 9.

Going from B1 to B2, the “Bmax (MFI)” value falls from 2530 MFI to 2470 MFI.

Compared with B3, B4 is lower in “Bmax (MFI)” value: 2450 MFI for the first, 2200 MFI for the second.

Compared with B5, B6 is higher in “Bmax (MFI)” value: 2280 MFI for the first, 2330 MFI for the second.

B7 was tested, and the “Bmax (MFI)” value was 2260 MFI.

B1 and B2 are within 1.5-fold of each other in Kd: 0.14 nM for the first, 0.18 nM for the second.

B3 and B4 are within 1.5-fold of each other in Kd: 0.1 nM for the first, 0.12 nM for the second.

B5 and B6 are the same in Kd: 0.11 nM for the first, 0.11 nM for the second.

Binder B7 has a Kd of 0.11 nM.

Target: T2, cynomolgus monkey glypican-3 (GPC3) (cynomolgus monkey, UniProt A5A6P7 25-554 (Pan troglodytes entry))
T2 construct: Transiently expressed on CHO-S cells; also called cynoGPC3; CynoGPC3-CHO
Experiment: flow cytometry on CHO-S cells transfected with cynomolgus GPC3;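 also: antibodies incubated 24 h at 4 °C with transiently transfected cells, binding read as AF647 geometric mean fluorescence of live cells, GFP-transfected cells as negative control, Hill-slope specific-binding fit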
Description: as §3

Going from B1 to B2, the “Bmax (MFI)” value falls from 3150 MFI to 2870 MFI.

First: B3
Second: B4
The “Bmax (MFI)” value of the first is lower: 2850 MFI for the first, 3160 MFI for the second.

Compared with B5, B6 is higher in “Bmax (MFI)” value: 2820 MFI for the first, 2930 MFI for the second.

B7 was tested, and the “Bmax (MFI)” value was 2870 MFI.

B1 and B2 are within 1.5-fold of each other in Kd: 0.19 nM for the first, 0.18 nM for the second.

Going from B3 to B4, the Kd rises from 0.13 nM to 0.25 nM (1.9-fold). The first binds more tightly here.

B5 and B6 are within 1.5-fold of each other in Kd: 0.15 nM for the first, 0.16 nM for the second.

B7 was tested, and the Kd was 0.15 nM.

Target: T1, human glypican-3 (GPC3)
Experiment: cell-based or functional assay
Remark: another data set of the same source

Going from B1 to B2, the “JHH-5 Internalization (MFI), Day 0 in mouse plasma” value falls from 12200 MFI to 8690 MFI.

First: B3
Second: B4
The “JHH-5 Internalization (MFI), Day 0 in mouse plasma” value of the first is higher: 13300 MFI for the first, 10200 MFI for the second.

First: B5
Second: B6
The “JHH-5 Internalization (MFI), Day 0 in mouse plasma” value of the first is lower: 10500 MFI for the first, 12800 MFI for the second.

With B7 the “JHH-5 Internalization (MFI), Day 0 in mouse plasma” value was 7100 MFI.

First: B1
Second: B2
The “JHH-5 Internalization (MFI), Day 14 in mouse plasma” value of the first is higher: 7250 MFI for the first, 5690 MFI for the second.

First: B3
Second: B4
The “JHH-5 Internalization (MFI), Day 14 in mouse plasma” value of the first is higher: 11100 MFI for the first, 7290 MFI for the second.

Going from B5 to B6, the “JHH-5 Internalization (MFI), Day 14 in mouse plasma” value rises from 9980 MFI to 11400 MFI.

With B7 the “JHH-5 Internalization (MFI), Day 14 in mouse plasma” value was 6040 MFI.

Compared with B1, B2 is lower in “JHH-7 Internalization (MFI), Day 0 in mouse plasma” value: 152 MFI for the first, 104 MFI for the second.

Going from B3 to B4, the “JHH-7 Internalization (MFI), Day 0 in mouse plasma” value falls from 144 MFI to 131 MFI.

First: B5
Second: B6
The “JHH-7 Internalization (MFI), Day 0 in mouse plasma” value of the first is lower: 131 MFI for the first, 143 MFI for the second.

In the case of B7, the “JHH-7 Internalization (MFI), Day 0 in mouse plasma” value is reported as 91 MFI.

Compared with B1, B2 is lower in “JHH-7 Internalization (MFI), Day 14 in mouse plasma” value: 76 MFI for the first, 63 MFI for the second.

Compared with B3, B4 is lower in “JHH-7 Internalization (MFI), Day 14 in mouse plasma” value: 115 MFI for the first, 75 MFI for the second.

Going from B5 to B6, the “JHH-7 Internalization (MFI), Day 14 in mouse plasma” value rises from 106 MFI to 115 MFI.

For B7, the “JHH-7 Internalization (MFI), Day 14 in mouse plasma” value was 73 MFI.
